Source: patent US20140134179A1 (published 2014)

T1: hTEM8(ED)-Fc fusion protein (UniProt Q9H6X2 33-321)
T1 chain: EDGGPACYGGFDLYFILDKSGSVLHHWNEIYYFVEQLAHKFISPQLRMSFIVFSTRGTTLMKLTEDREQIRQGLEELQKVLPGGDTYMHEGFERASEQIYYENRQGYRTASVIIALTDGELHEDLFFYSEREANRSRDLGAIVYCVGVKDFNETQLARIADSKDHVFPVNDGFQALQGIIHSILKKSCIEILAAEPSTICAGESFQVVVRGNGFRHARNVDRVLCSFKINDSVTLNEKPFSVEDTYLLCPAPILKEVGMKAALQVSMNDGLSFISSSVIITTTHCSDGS


How the values were obtained:
mTEM8 = experiment: ELISA
[1] = biological target: human TEM8 on CHO cells (CHO-TEM8) (UniProt Q9H6X2 33-564); experiment: flow cytometry, inhibition of PA-FITC binding
[2] = biological target: T1, hTEM8(ED)-Fc fusion protein; experiment: ELISA

| Binder | EC50 (mTEM8) [pM] | EC50 [1] [µg/mL] | EC50 [2] [pM] |
| --- | --- | --- | --- |
| L1 (Fab, V domains shown) VH: QVQLVESGGGLVQPGGSLRLSCAASGFTFNSYAMSWVRQAPGKGLEWVSLISSGSSTYYADSVKGRFTISRDNSKNTLYLQMNSLRAEDTAVYYCARAGFKFDNWGQGTLVTVSS VL: DIELTQPPSVSVAPGQTARISCSGDSIPNYSVSWYQQKPGQAPVLVIYADSNRPSGIPERFSGSNSGNTATLTISGTQAEDEADYYCQSYDNTSPDLVFGGGTKLTVLG | 210 | – | – |
| L1 Fab (Fab, V domains shown) VH: QVQLVESGGGLVQPGGSLRLSCAASGFTFNSYAMSWVRQAPGKGLEWVSLISSGSSTYYADSVKGRFTISRDNSKNTLYLQMNSLRAEDTAVYYCARAGFKFDNWGQGTLVTVSS VL: DIELTQPPSVSVAPGQTARISCSGDSIPNYSVSWYQQKPGQAPVLVIYADSNRPSGIPERFSGSNSGNTATLTISGTQAEDEADYYCQSYDNTSPDLVFGGGTKLTVLG | – | 0.0342 | 180 |
| L2 Fab (Fab, V domains shown) VH: QVQLKESGPALVKPTQTLTLTCTFSGFSLSTSGGGVSWIRQPPGKALEWLAHIYSNDDKSYSTSLKTRLTISKDTSKNQVVLTMTNMDPVDTATYYCARGGYFLDYWGQGTLVTVSS VL: DIELTQPPSVSVAPGQTARISCSGDNIGGIYVHWYQQKPGQAPVLVIYADSKRPSGIPERFSGSNSGNTATLTISGTQAEDEADYYCQSYDITSLVFGGGTKLTVL | – | 0.0218 | – |
| L2 (Fab, V domains shown) VH: QVQLKESGPALVKPTQTLTLTCTFSGFSLSTSGGGVSWIRQPPGKALEWLAHIYSNDDKSYSTSLKTRLTISKDTSKNQVVLTMTNMDPVDTATYYCARGGYFLDYWGQGTLVTVSS VL: DIELTQPPSVSVAPGQTARISCSGDNIGGIYVHWYQQKPGQAPVLVIYADSKRPSGIPERFSGSNSGNTATLTISGTQAEDEADYYCQSYDITSLVFGGGTKLTVL | 280 | – | – |
| L3 Fab (Fab, V domains shown) VH: QVQLQQSGPGLVKPSQTLSLTCAISGDSVSTNGAAWGWIRQSPGRGLEWLGRIYYRSKWYNDYAVSVKSRITINPDTSKNQFSLQLNSVTPEDTAVYYCARMPGGFLFDLWGQGTLVTVSS VL: DIELTQPPSVSVAPGQTARISCSGDNIRSYYAHWYQQKPGQAPVLVIYGDSKRPSGIPERFSGSNSGNTATLTISGTQAEDEADYYCSSYASHDYVFGGGTKLTVLG | – | 0.0364 | – |
| L3 (Fab, V domains shown) VH: QVQLQQSGPGLVKPSQTLSLTCAISGDSVSTNGAAWGWIRQSPGRGLEWLGRIYYRSKWYNDYAVSVKSRITINPDTSKNQFSLQLNSVTPEDTAVYYCARMPGGFLFDLWGQGTLVTVSS VL: DIELTQPPSVSVAPGQTARISCSGDNIRSYYAHWYQQKPGQAPVLVIYGDSKRPSGIPERFSGSNSGNTATLTISGTQAEDEADYYCSSYASHDYVFGGGTKLTVLG | 360 | – | – |
| L5 (Fab, V domains shown) VH: QVQLVESGGGLVQPGGSLRLSCAASGFTFNSYGLSWVRQAPGKGLEWVSNISSNGSYTYYADSVKGRFTISRDNSKNTLYLQMNSLRAEDTAVYYCARAGYGLFDVWGQGTLVTVSS VL: DIELTQPPSVSVAPGQTARISCSGDKLREYYVHWYQQKPGQAPVLVIYGDNKRPSGIPERFSGSNSGNTATLTISGTQAEDEADYYCSSWAGSRSGTVFGGGTKLTVL | 220 | – | – |
